Laboratory results published in publication PMC4441150, “Synergistic function of four novel thermostable glycoside hydrolases from a long-term enriched thermophilic methanogenic digester” (Frontiers in Microbiology, 2015).

What was measured:
Assay in all cases: purified protein
purified protein [1] = substrate: O=[N+]([O-])c1ccc(O[C@@H]2O[C@H](CO)[C@@H](O)[C@H](O)[C@H]2O)cc1; conditions: 1-50 mM substrate
purified protein [2] = substrate: O=[N+]([O-])c1ccc(O[C@@H]2OC[C@@H](O)[C@H](O)[C@H]2O)cc1; format: biochemical, bacterium enrichment culture; conditions: 1-50 mM substrate
purified protein [3] = substrate: O=[N+]([O-])c1ccc(O[C@@H]2O[C@H](CO)[C@@H](O[C@@H]3O[C@H](CO)[C@@H](O)[C@H](O)[C@H]3O)[C@H](O)[C@H]2O)cc1; format: biochemical, bacterium enrichment culture; conditions: optimal conditions of the enzyme (optimum pH 6.0, 65°C), 1-50 mM substrate
purified protein [4] = substrate: O=[N+]([O-])c1ccc(O[C@@H]2O[C@@H](CO)[C@H](O)[C@H]2O)cc1; format: biochemical, bacterium enrichment culture; conditions: optimal conditions of the enzyme (optimum pH 4.5, 60°C), 1-50 mM substrate
[5] = optimal conditions of the enzyme (optimum pH 6.0, 65°C), pH 6.0, 65.0 °C
[6] = optimal conditions of the enzyme (optimum pH 6.0, 65°C)
[7] = optimal conditions of the enzyme (optimum pH 4.5, 60°C), pH 4.5, 60.0 °C
[8] = optimal conditions of the enzyme (optimum pH 4.5, 60°C)

Protein	Km (purified protein [1]; [5]) [mM]	kcat (purified protein [1]; [5]) [s⁻¹]	kcat/Km (purified protein [1]; [5]) [M⁻¹ s⁻¹]	Km (purified protein [2]; [6]) [mM]	kcat (purified protein [2]; [6]) [s⁻¹]	kcat/Km (purified protein [2]; [6]) [M⁻¹ s⁻¹]	Km (purified protein [3]) [mM]	kcat (purified protein [3]) [s⁻¹]	kcat/Km (purified protein [3]) [M⁻¹ s⁻¹]	Km (purified protein [1]; [7]) [mM]	kcat (purified protein [1]; [7]) [s⁻¹]	kcat/Km (purified protein [1]; [7]) [M⁻¹ s⁻¹]	Km (purified protein [2]; [8]) [mM]	kcat (purified protein [2]; [8]) [s⁻¹]	kcat/Km (purified protein [2]; [8]) [M⁻¹ s⁻¹]	Km (purified protein [4]) [mM]	kcat (purified protein [4]) [s⁻¹]	kcat/Km (purified protein [4]) [M⁻¹ s⁻¹]
Bgl8520 (bacterium enrichment culture) (protein, no signal peptide; pET-28a(+) in E. coli BL21 (DE3), Ni-NTA purified) MNKHNKGGLLMKFPENFVWGAAAASYQIEGAAYEDGKGLSVWDIFTRQKGAIENGDNGDIACNHYHRYKEDVQLMKELGLQAYRLSLSWPRILANGTGKVNQKGLDFYDKLIDELLENGIEPYITLFHWDYPYELYKKGGWLNPDSPDWFAEYTEVVVQKLSDRVKNWITINEPQVFVNLGHKDGVHAPGLKLGMEDLLQISHNVLLAHGKGARVIRETSVQDCRIGLAPSDSPVFPATKSEENIQAARRASFSVEDKGLWAINWWMDPVILGRYPEEGLKIFEEYLPEIKTDDFKIISEPIDFFGVNIYQGVCVKLDDKGQAVPAERKVGYARNAYYWPITPEALYWGPRFYYERYKKPVIITENGMSNVDWVAVDGKVHDPQRIDFTNRYLRELQKAGEDGVDIQGYFHWSLMDNFEWAQGYLERFGLIYVDFETGERIIKDSAYWYKKVIETKGEALYA	0.9	124	140000	0.7	0.3	430	2.7	8.2	3000									
Xyl522 (bacterium enrichment culture) (protein, no signal peptide; pET-28a(+) in E. coli BL21 (DE3), Ni-NTA purified) MVYKMLFQRSDLPMEERIKDLISRLTLEEKVSQLLYDSAAIPHLGIPEYNWWNECLHGVARAGTATVFPQAIGMAASFNAPLLQQVAEVIATEARAKHHEAARHGDRGIYKGLTFWTPNINIFRDPRWGRGQETYGEDPYLTAQLGIAFVKGLQGDHPKYLKAAACAKHFAVHSGPESLRHSFDARCSQKDLYETYLPAFRALVTEAKVESVMGAYNRTNGEPCCASPTLLQKILREDWGFEGHVVSDCGAIHDIHAHHKVTGSPEESAALAVKNGCDLNCGRVYPALVEAVAQGLISEEEIDRALARLLRTKFKLGLFDPEEEVPYAQIPYEVVACDEHRSLAREMARQSMVLLKNENNLLPLSKELKTVAVIGPNADSRKVLLGNYFGTSSQLVTALEGIRRKLEPNCRVLYAEGCDLTTTRPGYWGNSPREGFAEALAVAERADAVIMCMGVSPDLEGEEGAAANSDGGGDRLTLELPGMQNELIKEVAALGKPLVLVLFSGSPLAVTWAQENVPAIIQAWYPGEEGGNALADIIFGDYNPAGRLPITFVKSLDQLPPFTDYSMEGRTYRYLKEEPLYPFGYGLSYTSFTYSNLQAPAELNIGEELVVQVDVENTGARAGDEVVQLYIRHRDASAAVPHHSLQGFARIRLEPGEKRTVTFRLAPRQLAVFDEEGRCLVEPGAVELLAGGSQPDARSEELTGQKPLLGQVLLVGETLELPR										15.7	1.4	89.2	8.8	14.3	1600	10.0	3.2	320
